Residues, ends and D or L forms follow the SMILES beside them.
Key:
GST-SH2 domain of Shc = molecular target: T1, GST-SH2 domain of Shc (Homo sapiens, UniProt P29353); test: BIAcore binding of Shc SH2 domain to immobilised phosphopeptides; settings: biosensor; for Affinity constant, ratio between dissociation rate (Kdiss) and association rate constants (Kass): Shc GST-SH2; for Binding of Shc SH2 domain to immobilised phosphopeptide: avidin-immobilized biotinylated phosphopeptide
T1 construct: using the Shc SH2 domain, expressed in bacteria as a GST-fusion protein; made in house; host or cells: bacteria
T1 sequence (P29353 488-579 limits assumed): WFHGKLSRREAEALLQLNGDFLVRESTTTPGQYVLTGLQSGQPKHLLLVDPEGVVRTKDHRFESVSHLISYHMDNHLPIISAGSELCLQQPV
Procedure: FIG. 13. […] The same concentration of Shc-SH2 was injected over two biosensor surfaces on which two phosphopeptides had been immobilised. Y1356P is derived from the sequence VNATY^1356 VNVK (SEQ. ID NO: 28) of the receptor tail; Y317P is derived from the sequence DDPSY^317 VNVQ (SEQ. ID NO: 27). Note that both peptides contain the same core (YVNV) but (SEQ. ID NO: 3) different upstream sequences. The initial rapid increase in the response is due to the "bulk effect" of the injected solution.
In vitro binding studies using GST-fusion protein. The region of the Grb2 cDNA corresponding to its SH2 domain (from nucleotide position 256 to nucleotide position 551) was isolated using polymerase chain reaction (PCR) and cloned into the BamHI-EcoRI sites of the bacterial expression plasmid pGEX-2T (GST-Grb2). Cultures of bacteria expressing GST, GST-Grb2 or GST-Shc (Segatto et al., Oncogene 2105-2112 (1993)) were grown for 3-4 hours at 37° C. in LB medium containing 1 mM IPTG. Bacteria were centrifuged, resuspended in 1/100 volume of ice-cold PY buffer, without Triton™ and lysed by sonication. After adding Triton X-100 to 1%, lysates were clarified by centrifugation. Recombinant proteins were purified onto glutathione Sepharose™ (Pharmacia) and used as such for binding assays. For each reaction, about 5 μg of GST, GST-Grb2 or GST-Shc bound to glutathione Seharose was incubated for 2 hrs. at 4° C. with […] of appropriate cell lysate made in PY buffer. Protein complexes were washed 5 times in ice cold PY buffer, eluted and denatured by heating at 95° C. for 3 min in Laemmli buffer, resolved on SDS-PAGE and analyzed by immunoblot.
The basic principles of operation as well as the methodology for obtaining kinetic measurements of SH2 domain interactions using the BIAcore instrument (Pharmacia) have been previously described in detail (Panayotou et al., Mol. Cell. Biol. 13: 3567-3576 (1993), Ponzetto et al., Mol. Cell. Biol. 13: 4600-4608 (1993)). Purified GST-SH2 domains or intact proteins were desalted in BIAcore running buffer (20 mM Hepes, pH 7.4, 150 mM NaCl, 3.4 mM EDTA, 0.005% Tween 20 and 4 mM DTT) and injected over avidin-immobilized, biotinylated phosphopeptides. The amount of phosphopeptides immobilized was normalized by measuring the binding of anti-phosphotyrosine antibodies. Association was measured over a range of protein concentrations and dissociation of bound material was allowed to occur either in buffer flow or upon injection of 20 μM competing, non-biotinylated phosphopetide. Peptide and protein concentrations were calculated by amino acid analysis on an Applied Biosystem amino acid analyzer.
The direct interaction between the SH2 domain of Shc and phosphotyrosine Y^1349 or Y^1356 was confirmed by real-time Biosensor analysis (Panayotou et al., ibid; Felder et al., Mol. Cell. Biol. 13: 1449-1455 (1993)).
The Shc sequence Y^317 VNV (SEQ. ID NO: 3) is identical to one of the two Shc binding sites present in the SF/HGF receptor (FIG. 8). […] The biosensor was used to compare binding of the Shc SH2 domain to the phosphopeptide DDPSY^317 VNVQ (SEQ. ID NO: 27), present on the Shc molecule, and to the phosphopeptide VNATY^1356 VNVK (SEQ. ID NO: 28), present on the SF/HGF receptor. […] Thus Shc-Shc association is not favoured in vivo, and the Shc phosphotyrosine residue Y^317 is available to bind other molecules, rather than to mediate the formation of concatamers.

[1] = molecular target: T2, binding of p85 to HGF/SF receptor (Bos taurus, UniProt P23727); test: Competition of phosphopeptides with p85 for association with immobilized recombinant HGF/SF receptor (in vitro kinase assay readout); parameters: species or system human; settings: phosphopeptide 10 μM; p85 from Sf9 lysates; FIG. 1
T2 construct: made in house; host or cells: Sf9 insect cells (baculovirus), for both p85 and the receptor
Procedure: FIG. 1. Inhibition of binding of p85 to HGF/SF receptor by tyrosine-phosphorylated peptides. Recombinant HGF/SF receptor was purified by immunoprecipitation from baculovirus-infected Sf9 cells using a rabbit polyclonal antiserum and phosphorylated with cold ATP. Lysates of Sf9 cells expressing p85 were pre-incubated with each of the phosphopeptides (10 μM). The lysates were then allowed to associate with immobilized recombinant HGF/SF receptors. Following association the complex was washed and receptor-bound p85 was detected by an in vitro kinase assay, as described in Materials and Methods of Example 4. The phosphopeptides are identified by the number of the amino terminal tyrosine.
FIG. 2. Inhibition of binding of p85 to HGF/SF receptor with different concentrations of tyrosine-phosphorylated peptides. The phosphopeptides which efficiently out-competed p85 binding to the HGF/SF receptor (FIG. 1) were used at increasing concentrations (10 nM, 100 nM, 1 μM from left to right) to define their relative affinities for p85. Conditions of the experiment were as in FIG. 1. Phosphopeptide 1365 was used as a negative control for p85 interaction.
In vitro association experiments. Sf9 cells expressing the recombinant HGF/SF receptor (approximately 4×10^6 cells/point) were lysed 36 hours after infection in buffer A (10 mM Tris-HCl buffer pH 7.5, 10% glycerol, 1% Triton X-100, 150 mM NaCl, 5 mM EDTA), supplemented with 0.2 mM phenyl-methylsulfonyl fluoride, 1 μg/ml leupeptin, 0.1 TIU/ml aprotinin and 1 μg/ml pepstatin. Lysates were clarified at 15,000×g at 4° C. for 15 minutes and the supernatants immunoprecipitated after 2 hours incubation with anti-Met antibodies coupled to Protein A-Sepharose. Immunocomplexes were washed three times with buffer A, once with buffer B (10 mM Tris-HCl pH 7.4, 100 mM NaCl, 1 mM EDTA) and once with buffer C (25 mM 4-(2-hydroxyethyl)-1-piperazine-ethanesulfonic acid (HEPES) buffer pH 7.2, 100 mM NaCl, 5 mM MgCl2). Samples were pre-phosphorylated by incubation for 15 minutes at 25° C. in buffer C with 10 μM unlabelled ATP and then washed three times with cold buffer A supplemented with 1 mM sodium ortho-vanadate. Association between the immobilized receptor and the baculovirus-expressed p85 was carried out as previously described (Bardelli, A., et al., Oncogene 7: 1973-1978 (1992)). For the association experiments with the PI 3-kinase holoenzyme three days serum-starved A549 cells (approx. 2×10^6 cells/point) were used as a source of PI 3-kinase. A549 cells were Dounce-homogenized in MOPS buffer (20 mM 3-(N-morpholino)propanesulfonic acid) (pH 7.5), 1 mM MgCl2, 0.1 mM EDTA, 200 mM sucrose, 1 mM sodium ortho-vanadate), supplemented with 0.2 mM phenylmethylsulfonyl fluoride, 1 μg/ml leupeptin, 0.1 TIU/ml aprotinin and 1 μg/ml pepstatin. Homogenates were centrifuged at 100,000×g for 20 minutes at 4° C. When checking for the ability of phosphopeptides to block the association with the receptor, cell lysates were pre-incubated with the phosphopeptides for 1 hour at 4° C. prior to incubation with the immobilized recombinant HGF/SF receptor. Following association, immunocomplexes were washed three times with buffer A, twice with buffer D (0.5M LiCl, 100 mM Tris-HCl pH 7.6), and twice with buffer B.
The presence of the p85 subunit of the PI 3-kinase in the receptor immunoprecipitate was determined by: i) labelling of the receptor and associated proteins with [γ-^32 P]ATP by in vitro kinase assay; ii) Western immunoblotting; iii) PI 3-kinase activity assay.
In vitro kinase assay. Receptor-associated proteins were labelled in 20 μl of buffer C, in the presence of 10 μCi [γ-^32 P]ATP (specific activity 7,000 Ci/Mm; Amersham) at 25° C. for 15 minutes. The reaction was stopped by adding 1 ml of ice-cold Buffer A without protease inhibitors. Samples were washed three times with cold buffer A. The labelled immunocomplexes were eluted from Protein A-Sepharose in boiling Laemmli buffer. […]

T2 sequence (P23727 whole entry): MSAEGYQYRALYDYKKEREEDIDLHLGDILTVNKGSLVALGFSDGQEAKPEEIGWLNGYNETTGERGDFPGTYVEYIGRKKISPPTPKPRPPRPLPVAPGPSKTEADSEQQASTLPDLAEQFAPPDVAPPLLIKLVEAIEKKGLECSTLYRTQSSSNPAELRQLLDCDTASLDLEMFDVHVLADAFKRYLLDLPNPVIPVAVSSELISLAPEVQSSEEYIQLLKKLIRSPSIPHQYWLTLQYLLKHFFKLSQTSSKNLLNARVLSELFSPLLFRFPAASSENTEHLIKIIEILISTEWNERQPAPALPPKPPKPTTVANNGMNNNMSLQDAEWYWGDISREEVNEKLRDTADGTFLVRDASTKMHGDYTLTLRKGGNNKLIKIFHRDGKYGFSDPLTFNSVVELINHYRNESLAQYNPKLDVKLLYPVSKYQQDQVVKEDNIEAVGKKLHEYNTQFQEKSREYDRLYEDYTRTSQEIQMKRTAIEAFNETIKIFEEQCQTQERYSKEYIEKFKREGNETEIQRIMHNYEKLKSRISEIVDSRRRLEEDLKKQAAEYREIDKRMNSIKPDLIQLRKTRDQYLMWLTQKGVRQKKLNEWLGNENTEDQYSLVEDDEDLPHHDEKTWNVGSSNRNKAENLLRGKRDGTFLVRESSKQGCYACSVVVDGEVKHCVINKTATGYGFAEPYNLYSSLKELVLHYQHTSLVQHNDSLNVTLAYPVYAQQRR

Compound | Affinity constant, ratio between dissociation rate (Kdiss) and association rate constants (Kass) (GST-SH2 domain of Shc) | Inhibition of binding of p85 to HGF/SF receptor [1] | Binding of Shc SH2 domain to immobilised phosphopeptide (GST-SH2 domain of Shc) | Binding of Shc SH2 domain to immobilised phosphopeptide (GST-SH2 domain of Shc; listed as Y1356P)
H-Ile-Gly-Glu-His-Tyr*-Val-His-Val-Asn-OH (H-IGEHYVHVN-OH; not fully specified (residue 5); also: Tyr5 (Y*) may be phosphorylated or unphosphorylated, not settled) [IGEHY^1349* VHVN] | too high to be exactly determined | – | – | –
CC(C)C[C@H](NC(=O)[C@@H]1CCCN1C(=O)[C@H](CC(=O)O)NC(=O)[C@@H]1CCCN1C(=O)[C@H](CS)NC(=O)[C@@H](N)Cc1ccc(OP(=O)(O)O)cc1)C(=O)N[C@@H](Cc1ccc(O)cc1)C(=O)N[C@@H](CCC(=O)O)C(=O)O [H-Tyr*-Cys-Pro-Asp-Pro-Leu-Tyr-Glu-OH] (HELM PEPTIDE1{[N[C@@H](Cc1ccc(OP(=O)(O)O)cc1)C(=O)[*:2]].C.P.D.P.L.Y.E}$$$$V2.0) | – | only partially effective | – | –
H-Val-Asn-Ala-Thr-Tyr*-Val-Asn-Val-Lys-OH (H-VNATYVNVK-OH; not fully specified (residue 5); also: Tyr5 (Y*) may be phosphorylated or unphosphorylated, not settled) [VNATY^1356* VNVK] | too high to be exactly determined | – | specifically bound | binds to the docking site of the SF/HGF receptor

Source: patent US5912183A, “Peptide inhibitors of mitogenesis and motogenesis” (Pharmacia & Upjohn S.p.A., priority 1993, dated 1999)
